Experimental data from the DeepSol protein solubility set.

Experiment: soluble on expression in E. coli; label from the status in PepcDB or PDB records

Soluble on expression in E. coli, not soluble:
MGSDKIHHHHHHLYNNSANTQFTGKSIHFLPSCHSTNTEASLLIRAQKAVNGLIVITNEQTAGRGQQGNSWLSKADSNLTFSVIFFPEKLHLKDSFYLNIVSSLSIAKTVDELVPENIVKVKWPNDILLNNKKVCGILIENMLRGEHIHAVVMGIGVNVNHSDGNLPFAGAMSSEAAKTFHLQEVFTRICENLEPYYLMLEQGLFAELDALYLQNLYGLNEKKHFSDSEGNFTGTIQAVLPGGLLQVEKESGVIKQYTFKEVSLVK
MGSDKIHHHHHHMAAIGSYNITLLNRESIKENAAYPIADNVEVIALSGSLFEFYKKLKKQISSNNYDVVVVHNMGKLSLLCAFVPNIKKLVVLEHVSFISRPKKIQILSKFLYRNIDQVVTLTQNDKEQFDKFHSNVIVIPNFSPFSIASQPQNNGKQIVTIGRLTDQKNYIHLLQAWKKIYQSIPDWQLNIYGEGEQEEMLQDYIKQQSLKNVSLKGSTSNVKEVYEQSSFFVMSSKYEGLPMVLIEAQSFGLPIVSYNCPYGPSDVIRDSKNGFLVEDQNVDELAAAVLKVALSPQLLEQFSQSSLLNAKKYQPEQILKIWIEKVLEG
MGSDKIHHHHHHMAATFGPRIARADENGQGSEHVALSWQKMDASGWRSGEASPAALHSDHHCRRGFAMSTRDADDRREYYRIEDTLALEFRPAGAVEDGLESEPGATLFSLLSDLHLMDYESQHLLRHISERDRTLANYLKVMNKRIDLLGQVMVQSLLKEIGEPRKVSLSEGGVSFRHDRALPVGQLLVLRMVLLPQGFGLELRARVIHAQPHDDEFEIGTEFEALSDAQRQLLARHILQKQAQQRRLARAGQGPLGEPGQPSST
MGSDKIHHHHHHMAAVLLTGHGGPEKLVYRTDVKVPSPDPGEVLVEVSACGMNNTDVWVRQGAYGTEEDAAAVSTWRRQGNTLVFPRIQGTDTVGTIVSVGEGVSPERIGERVMVDFSIYNRDDDSLADIDYMGHGRDGGYAEYQTVPAENAHVVDTDMSDVELATFCCAYLTGEQMLERAGLKAGERVLVTGASGGVGSGIVQLARARGAIPYAVVGKGKEQAVLDIGAEAVITRGVADLPRAVAEVTGGQPIDVVADLVGGAIFNDLLRILRPEGRYTTAGAIAGPVVQLDLRTMYLKQLQLHGSSQGTRADFRRIVGYIEAKKIRPLVGGVYRLSDFHRAQADFVAKDFVGKLVVVPDAIAERQA
MGSDKIHHHHHHMADDQEKLLIDEEETVQIKDLNKVTTVNDTDLLLLDDGAASSNAITFKNFLDASKDKIFKGEGLDYFKQIIKSTIAEELAADKDFVEKIYAKITDKLINNDSTNISNLFSKIKSRLTDSISSATLSRSDHLLIMPSSDTIQKTPVPKHILGVPSNLAYGSITRSTTLYPSDYENNAIFINMEDNDDVTLIFSKSYDNSPVYLDIEIQVKINDNRMQKKSLKLQYSDETTYNRVYEIAGPRGLFTRIPIYKGWYVQKRASLYGDPVPDLLKL
MGSDKIHHHHHHMAEDQTVLAIDIGGSHVKIGLSTDGEERKVESGKTMTGPEMVAAVTAMAKDMTYDVIAMGYPGPVVHNKPLREPVNLGEGWVGYDYEGAFGRPVRIVNDALMQAIGSYNGGRMLFLGLGTGLGAAMIVENVAQPMEIAHLPYRKGKTYEHYVSEAYREKKGNAKWQKRVQDVVERLSAALEPDEVVIGGGNVERLENLPPKCRRGDNAMAFEGGFRLWKNADLIV
MGSDKIHHHHHHMAFNFGCLNSPETVSSALATRENSLGLAIDPFLAPVAMVATQDIVLRQYFRERIVLGQENLPMQGPVLLAPTHRSRWDALMLPMAAGRRVTGRDCRFMVTVDEMKGLQGWFLHRLGCFPVNQSKPSLTSLRYAIDLMADGQQVVVFPEGTINRTEKPIKLYQGLARLAQLAKSQNIDVQVVPVGLGYSEVIPKACGRASICFAEPMKVLETGREAVKSFNAELSEKMHAAEQAALHAVGRLKKAP
MGSDKIHHHHHHMAHVNTNGIQIEYEVFGKRTNPTIVLIAGNGAQLNFWESDFCEMLAQHNLQVIRFDNRDAGLSTKFDAAGIPDMSKIYQAAQEGKPIKTAYTLEDMADDVAGLLDALEIKKAHICGASMGGMIAQVFAYRHPLRICSLISIMSSTGNPNNPKISQETLEIVTATPPNQRGAYIEYTVHMWKKLWSKGFPFEEERAIRYTEESYDRCYYPQGAVRQNAALVANGDRRKYLSLLRVPTLVIHGTADPLIPVEAGKDTARTIPNAKLLLIEGMGHDMPKGTWKCIVEAIVSLVRDTSHSCWR
MGSDKIHHHHHHMAIACVFTRASCGVEAPRVTVEVHLSNGLPAFNLVGLPETSVKEAKERVRSALINAGFEFPQKRITVNLAPADLPKQGGRYDLPIAVGILAASNQVPAKALHQCEFVGGLALSGQIRPCSGLLPAIIAARNDQHHFFMPIENRHEAELVGYKHSYFVAHLQNLAAFLHGQAQLPLLDTLPEWIEEEIQAQSSLCMSDVIGQYQAKHGLEIAAAGGHNMLFIGPPGTGKSMLANRIIPLLPKLTYDEAIEVAAIHSVAGLHVKPQNFLNRPFRSPHHTSSSIALIGGGSHPKPGEISLAHRGILFLDEIAEFPRKVLDCLREPLETGQVEISRAAAKLTFLSRFQLIAAMNPSPCGDTERARSTPDQIQRYLSRLSGPFLDRFDLTVDVPKLPAGTLTQQHQPSESSVEIAKRVKQARDLQLSRSGVLNSELTPKQLKQDGAITQPDLAFLEQSVVSLGLSVRSFHRIQRVSRTIADLQQSPTTERSHIAQALGYRAMDRLLAKLNQQ
MGSDKIHHHHHHMAIAPTLNIPQAKFLAMQYKFKAYVAGFGSGKTWVGCGGICKGMWEHPKINQGYFAPTYPQIRDIFYPTVEEVAHDWGLNVKINEGNKEVHFYAGRQYRGTTICRSMEKPQTIVGFKIGNALIDELDVMPAKKAQLAWRKIIARMRYNVAGLRNGIDVTTTPEGFKFVYQQFAKAVRDKPSLSTLYGLVQASTFDNEKNLPPDYIPSLMESYPPELIKAYLRGQFTNLTSGTIYHQFDRKLNNCREEEQPGEPLYIGMDFNVGKMAGVVHVLRLGLPFAVTEIIKAYDTPDMIRIIKERFWLCDGHDYRKVREIYIYPDASGDSRKSSNASATDIAQLKQAGFNVVVNASNPPVKDRINAMNAMFCNGNGERRYKVNVKRCPVYTESLEQQVWGENGEPDKTADNDHPNDAGGYFIVKQFPIIKPTGKVTQLRM
MGSDKIHHHHHHMAIKILSVDDEQDLEALLTQYFRRKIRKGEYEFSFAHNGLEALRMMLDHPDFDIILSDINMPEMDGLTLLTKINEMRNPALKCIIVSAYGDMENIRTAMNHGAFDFATKPIDMEDLERTIEKAVEQISFIKEAQKEHHQLEEIQYDLNVAREIQQSILPKQFPPFPQYKQFDLYATMSAAKAVGGDFYDFFLVDDNHLGFTIADVSDKGIPAAIFMAISRTVIRATALRQLSPAVCMKESNDLLCRESVNGMFVTTFYAILNIHTGDVVYCNGGHNRPVWIRKNDKVSLLPMTGGMALGVVPGLAYKEQSLKLEAGDSLFLYTDGISEAMNLRNEQYGDIRLVEACSSVKNQSPKSMIEGISESVQSFVNGATQSDDITMLALTYKG
MGSDKIHHHHHHMAKIGRNEPCPCGSGKKYKRCCMSGVGKQQADFVDSIEQMLAMNPDLSMDELNIIAEHQSNKINTTPHKDFCGLAPGQVNNWLYAPFPELEGITINTPSDLSTSPVMRYLKLMLETALANGGQIKATAKGNLPAALVKEASAFLPEFAVAPFERAISISEFAGANEDKFNALHYCRVLAKIAGIFKLKSNKFHVSAWAKHQYQRAGLESFFPIMLETAVYKYNWGYFDLWENEIPLQHFWLFMLWRLQHHKSHERLVDEMIQAFPDLLNELYEEEYMSDRDKLAVLIESRFIHRFLQFFGFVMVDPRRVIDGKRVAAQVTCLRSMHETFNFRIE
